Test results reported in article PMC6175992, “Telomeric Repeat-Binding Factor Homologs in Entamoeba histolytica: New Clues for Telomeric Research”.

T1: rEhTRF-like I (Entamoeba histolytica, UniProt C4M1I9 1-404)
T1 sequence: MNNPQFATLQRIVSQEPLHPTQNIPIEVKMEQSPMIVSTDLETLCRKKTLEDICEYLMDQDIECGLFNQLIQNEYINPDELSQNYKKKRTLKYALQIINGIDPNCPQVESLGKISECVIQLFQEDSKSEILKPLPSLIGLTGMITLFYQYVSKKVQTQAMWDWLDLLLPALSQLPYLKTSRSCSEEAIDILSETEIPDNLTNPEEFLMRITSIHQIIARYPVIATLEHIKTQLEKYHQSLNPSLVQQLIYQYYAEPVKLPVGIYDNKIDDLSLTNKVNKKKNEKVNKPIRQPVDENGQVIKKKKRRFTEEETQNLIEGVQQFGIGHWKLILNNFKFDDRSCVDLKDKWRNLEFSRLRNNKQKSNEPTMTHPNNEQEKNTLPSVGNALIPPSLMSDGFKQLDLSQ

B1: EhTEL (dsDNA)
DNA 1: GCTCTATTAGTATTTTAGTATTTTAGTATTTTAGTATT
DNA 2: CATCTAGAGCAATACTAAAATACTAAAATACTAAAATACTAA
B2: HsTEL (dsDNA)
DNA 1: GCTCTAGGGTTAGGGTTAGGGTTAGGGTTA
DNA 2: CATCTACCCTAACCCTAACCCTAACCCTAA

Molecular target: T1, rEhTRF-like I
Test: EMSA; competed by unlabeled HsTEL and EhTEL; 12 mM HEPES pH 7.9, 60 mM KCl, 5 mM MgCl2, 1 mM EDTA, 4 mM Tris-HCl, 5 mM DTT, 10% glycerol, 4 mM spermidine, 4 mM MgCl (so in the source), 50 ng poly dI-dC, protease inhibitors; 20 min at 4 C; 106.86 uM rEhTRF-like I or 10 ug nuclear extract, 1 ng probe
Settings: protein: recombinant; tags: His tag (pCold I); label: 32P; 5' overhangs on both strands

Binder | binding result
B1 | binds
B2 | binds
